One may read the Kd as a measure of binding affinity in units of concentration.

This is an account of results in PMC12207404, “Significance of the CTP-binding motif for the interactions of S. coelicolor ParB with DNA, chromosome segregation, and sporogenic hyphal growth” (Nucleic Acids Research, 2025).

The test system of data set [1] is ScParB (Streptomyces coelicolor). Kind of data set: BLI. Conditions: no CTP, BLI: 100 mM Tris-HCl pH 8.0, 100 mM NaCl, 1 mM MgCl2, 0.005% Tween 20, 30 C, EMSA: 100 mM Tris-HCl pH 8.0, 100 mM NaCl, 10% glycerol, 1 mM DTT, 1 mM EDTA …. For orientation: In EMSA bound probe runs differently from free probe, usually more slowly.
Data set [2] deals with T1, ScParB (S. coelicolor ParB) (Streptomyces coelicolor, UniProt Q9RFM2).
T1 construct: full-length; N-terminal GST fusion from pGEX-6P-1_parB, GST removed with PreScission protease; expressed in E. coli BL21 pLysS; dimer
Kind of data set: TNP-CTP fluorescence enhancement at […] nm. The format is binding. Conditions: 1 μM protein, 5 μM TNP-CTP, no DNA, 1 mM MgCl2, pH 8.0, room temperature; labelled compound.

Data set [3] deals with the molecule itself. Kind of data set: cross-linking; glutaraldehyde (0.03%, 0.06% or 0.12%), 4 μM ScParB variant, 100 mM Tris-HCl pH 8.0, 100 mM NaCl, 1 mM MgCl2, 0.005% Tween 20, 30°C, 30 min; optionally 4 mM CTP or 4 μM 34-bp parS dsDNA; SDS-PAGE, Coomassie, percent of dimer and HMW complex of the lane's total signal.
Data set [4] deals with the molecule itself. Kind of data set: two-hybrid; bacterial two-hybrid (BACTH): pUT18C and pKT25 derivatives cotransformed into E. coli BTH101; blue colonies on LB agar with X-gal and 0.5 mM IPTG, 30°C, and β-galactosidase activity (Miller units).

T1 sequence (Q9RFM2 entry or part of it): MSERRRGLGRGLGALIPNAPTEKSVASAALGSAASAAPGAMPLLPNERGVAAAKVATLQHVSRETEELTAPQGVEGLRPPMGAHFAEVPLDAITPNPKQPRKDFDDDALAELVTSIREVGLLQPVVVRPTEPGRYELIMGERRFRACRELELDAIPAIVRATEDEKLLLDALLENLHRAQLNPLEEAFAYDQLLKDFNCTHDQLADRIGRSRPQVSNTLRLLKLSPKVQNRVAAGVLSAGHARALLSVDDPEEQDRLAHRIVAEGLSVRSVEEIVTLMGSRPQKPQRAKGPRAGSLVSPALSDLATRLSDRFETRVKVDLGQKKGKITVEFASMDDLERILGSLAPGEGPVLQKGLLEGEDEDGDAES

Molecule 300-bp parS, one-end biotin gave a Kd in data set [1] of 271 nM.
On to 300-bp parS, two-end biotin, for which, in data set [1] (Discussion prints 176), the Kd is 167 nM.
With `Nc1ccn([C@@H]2O[C@H](COP(=O)(O)OP(=O)(O)OP(=O)(O)O)[C@H]3OC4(O[C@H]32)C([N+](=O)[O-])=CC(=[N+]([O-])O)C=C4[N+](=O)[O-])c(=O)n1` (some centres unmarked) [TNP-CTP, 2′,3′-O-trinitrophenyl-cytidine-5′-triphosphate], the “relative fluorescence (RU)” value in data set [2] came out at 1.16 ± 0.06 RU.

B1: ScParB^R142A, purified recombinant (natural protein)
chain: MSERRRGLGRGLGALIPNAPTEKSVASAALGSAASAAPGAMPLLPNERGVAAAKVATLQHVSRETEELTAPQGVEGLRPPMGAHFAEVPLDAITPNPKQPRKDFDDDALAELVTSIREVGLLQPVVVRPTEPGRYELIMGEARFRACRELELDAIPAIVRATEDEKLLLDALLENLHRAQLNPLEEAFAYDQLLKDFNCTHDQLADRIGRSRPQVSNTLRLLKLSPKVQNRVAAGVLSAGHARALLSVDDPEEQDRLAHRIVAEGLSVRSVEEIVTLMGSRPQKPQRAKGPRAGSLVSPALSDLATRLSDRFETRVKVDLGQKKGKITVEFASMDDLERILGSLAPGEGPVLQKGLLEGEDEDGDAES
notes: source: E. coli BL21 (DE) pLysS, purified (Glutathione Sepharose 4B, cleaved with PreScission protease); not shown: GST, N-terminal, cleaved
In the case of B1, the “fold enhancement of dimerization against wild-type ScParB” value in data set [3] was at most 3 fold.

B2: ScParB^R142A, bacterial two-hybrid fusion (natural protein)
chain: MSERRRGLGRGLGALIPNAPTEKSVASAALGSAASAAPGAMPLLPNERGVAAAKVATLQHVSRETEELTAPQGVEGLRPPMGAHFAEVPLDAITPNPKQPRKDFDDDALAELVTSIREVGLLQPVVVRPTEPGRYELIMGEARFRACRELELDAIPAIVRATEDEKLLLDALLENLHRAQLNPLEEAFAYDQLLKDFNCTHDQLADRIGRSRPQVSNTLRLLKLSPKVQNRVAAGVLSAGHARALLSVDDPEEQDRLAHRIVAEGLSVRSVEEIVTLMGSRPQKPQRAKGPRAGSLVSPALSDLATRLSDRFETRVKVDLGQKKGKITVEFASMDDLERILGSLAPGEGPVLQKGLLEGEDEDGDAES
notes: also called R142A-substituted variant; source: bacterial two-hybrid fusion (pUT18C and pKT25 derivatives), in E. coli BTH101
Take B2: the “fold enhancement of dimerization against wild-type ScParB” value in data set [4] is at most 3 fold.
